According to patent publication US10556936B2, “Immunogenic proteins and fragments thereof from allergenic mites” (ALK-ABELLÓ A/S, priority 2016, dated 2020):

B1: A001: house dust mite protein; SEQ ID NO: 13 (Der f), 14 (Der p); recombinant test protein (protein)
chain: KKSPDCDIERPIRECLKDGLLRYSSGQKINQFPDTIQDLNRACEELKKSETCARTFIDTCTESSYEKRSLDSLLDGIQRVMKRLCRSQTKKEKLLENVGCANSVVQDTKQCLKNYRMLVFAANKLDNKNKIMRILCCKSRKVAPCIGEAMKAKGTAVCSAKNIDYFKDVHQNIKQEMTAVVCSDFERDQCENVDVPNISESEYKDQNIFNPLRDLYKKVILG
B2: A003: house dust mite protein; SEQ ID NO: 2 (Der f), 3 (Der p), 305 (Blo t) (protein)
chain: MAIDGKYQMESSEHFEEFVKEMGLDVDMTNVDLSKTSTMEICKDGDVYHIKSETAGIAHEIKFKVGEEFEDDMNGHKFKNVVTMECDNKMVQKKTSADGGKVVNVVREFTDAGCTVKSTYNTVTWTRVYKRM
B3: 44 (protein, listed as Dermatophagoides pteronyssinus)
chain: VVIKVENLPEQCDYTQCPKWSKDDINVHLVAHTHDDVGWLKTVEQYYYGLKNDIQRAGVQYILDTMIEELIRNKDRRFIYVEIAFFWKWWQEQNEEQRMIVKELVRTGQLEFINGGWSMPDEAATHYNSLIDQSTWGLRQLNDTFGRCGHPKVTWQIDPFGHSKEMANLYAQMGYDALFFARQDYQDRENRMSNRTLEHVWQGSDDLGEIGDIFTGMMFSGYGPIEFNWDITNGPEDAVVDNPESEEYNVPDKIRRFVEKAKYFGQFYATNHFMFPMGTDFQYTDAHTWFKNLDKLINAVNKAGKGVRAFYSTPSCYAHALYEQNRTWTTKTDDFFPYASDEHAYWTGYFTSRPAIKRMERIGNNLLQACKQLDVLADNNGRFEMNLTKMREAMGVMQHHDAVTGTEKQHVAFNYAKMLDSAMLQCRHIINESYKKLLPKSSTSEHEFCPYLNISSCPTTEMGESRIIYLYNPLGHRLINHTVRLPIKNGYYYRIQDQNNQSVPSVLVPIPEFVQKIPGRKSVATKELVFRVPVIEPLGITTMYMYVDKNEQPNSAIEIKGENPDDNDDKSKWLVLTKNLIVEFYSNGTISRISIDKLHQSISISNEFRLYHGAGGTGRHSGAYIFRPNEQKTFPVTNKIKSTFFIDRKYHIVQEVHQQFDSSFVGQIIRMDKYNDNVEFDFVVGPIPVNDQIGKEIIASYKTDLENDETFYTDANGRQMLRRRWNYRPSWKYNVQEPISGNYYPVNSRIAIRDEKQSLQMTIMTDRSQGGSLSPEQINGSIDIMIHRRLLHDDYFGVGEALNEPGVDGHGLVIRGKHLLLLNSIKQSASEHRPLAQQMFMEPIISFTSIESNKQAEKQSNQYIGLNNDLPSNVHLLTLEQWHSKRYLLRLEHFYQSNEDTELSKPVKLSLRHLFKSFEIIAVEELTLGANQPISSLKNRLHYRYNRPLEQRQQQQSSLLLDDPKIEGENFDIHLSPMQIRTFLIDIKRN
B4: 4 (protein, listed as Dermatophagoides pteronyssinus)
chain: QVYCNGAAIVSAARSQIGVPYSWGGGGIHGKSRGIGEGANTVGFDCSGLAQYSVYQGTHKVLARVASGQYSDPKCHHVAYGSHQPGDLVFFGNPIHHVGIVSAHGRMINAPHTGTNVREENIWSDHIANVARCW
B5: A007: house dust mite protein; SEQ ID NO: 30 (Der f), 31 (Der p), 306 (Blo t) (protein)
chain: MAKFNYLPVDVQEELRNTANAIVSVGKGILAADESTGTIGKRFADINVENVEQNRQAYRQLLFYSEGIEQYISGVILFDETVYQKDDKGVPFPELLKKKGIIPGIKVDTGVVTLQGTNGESTTQGLDNLTKRCQEYYNQGCRFAKWRCVLKIGQDEPSSLAIVENANVLARYASCCQQARIVPIVEPEILPDGDHNLERCQKVTETVLAAVYKALNDHHVYLEGTLLKPNMVTPGQSCPQKASPQEVAQATVTALQRTVPAAVPGIVFLSGGQSEEEASVNLNAINQYQGKKPWALSFSYGRALQASALRAWQGKPENIGAGQKELLQRAKANVLAHKGQYVAGSIPSLASAKSNFVAQHKY

Key:
Format in all cases: cell-based, human
[1] = system: T cell lines obtained from HDM allergic individuals and non-allergics; test: In vitro T cell proliferation test in T cell lines (Example 3); settings: 0.5 or 2 ug/ml, 72 h; for % responders of in-vitro T cell proliferation test, Allergic: T cell lines from HDM allergic individuals (n=30); for % responders of in-vitro T cell proliferation test, Non-allergics: T cell lines from non-allergics (n=8)
Procedure, shortened: (§1)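 Freshly isolated PBMC (5×10^6/ml) from mite-allergic patients or non-allergics cultured 5 days with test protein up to 10 ug/ml; IFN-gamma, IL-9, IL-10, IL-17, IL-31 in supernatants by multiplex immunoassay. T cell lines, raised 3 weeks on HDM extract, tested at 0.5 or 2 ug/ml protein in 72 h proliferation assay.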

[2] = system: PBMC cells obtained from mite allergic patients and non-allergics; test: Ex vivo stimulation of PBMC: cytokine production (IFN-gamma, IL-9, IL-10, IL-17, IL-31)
Procedure, shortened: as §1

[3] = system: basophils in whole blood from HDM allergic donors; test: Basophil Activation Test (BAT); settings: blood from HDM allergic individuals (n=14)
Procedure, shortened: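 Whole blood from HDM-allergic donors (n=14) was stimulated for 1 h with test proteins across a concentration range, e.g. 1, 10, 100 or 1000 ng/ml. Basophil surface activation markers were measured by flow cytometry, with Der p 1 and Der p 2 tested at the same concentrations as controls.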

[4] = system: HDM specific T-cell lines from HDM allergic donors; test: T cell reactivity of protein: IL-5/IFNg FluoroSPOT or 72 h T cell proliferation in HDM specific T-cell lines (Example 2); settings: responding donors of tested HDM allergic donors
Text: PBMCs from European HDM-allergic individuals were recruited in the Copenhagen region (defined by clinical history of allergy to house dust mite and specific IgE to group 1 and group 2 major allergens from Der p and/or Der f and with measured specific IgE (CAP) >0.7 kU/L towards Der p/f 1 or Der p/f 2. In addition, PBMCs from 10 US HDM-allergic individuals were recruited in San Diego (defined by Der p extract IgE titers greater than 0.35 kUA/L). PBMCs were isolated from whole blood by density gradient centrifugation according to manufacturers' instructions (Ficoll-Hypaque, Amersham Biosciences, Uppsala, Sweden). Der p- and Der f-specific extract IgE titers were determined using the ImmunoCAP system (Thermo Fisher, Uppsala, Sweden). In a separate series of experiments, pooled plasma from 10 European and 10 American HDM atopic individuals from the San Diego region, respectively, was utilized to run 2D immunoblots to elucidate IgE and IgG reactivity towards the proteins, which had at least one peptide with positive T cell response.
T cells reactivity was determined by establishment of HDM specific T-cell lines according to standard methods. In short, PMBCs from HDM allergic donors were cultured for 2-3 weeks in the presence of house dust mite allergen extract. The responses to proteins having SEQ ID NOs 1-44 were assessed by IL-5/IFNg FluoroSPOT (Mabtech FS-0108-10) according manufacturer protocol, (after 2 weeks) or proliferation in a standard 72 h T cell proliferation assay, as described in Henmar H et al., Clin Exp Immunol 2008; 153(3):316-23. (after 3 weeks). In addition these established T cell lines were used for further characterization and epitope mapping.

Molecule	% responders of in-vitro T cell proliferation test, Allergic [1] [%]	% responders of in-vitro T cell proliferation test, Non-allergics [1] [%]	% HDM allergic individuals with cytokine production in ex-vivo T cell assay IL-5 [2] [%]	% HDM allergic individuals with cytokine production in ex-vivo T cell assay IL-9 [2] [%]	% HDM allergic individuals with cytokine production in ex-vivo T cell assay IL-10 [2] [%]	% HDM allergic individuals with cytokine production in ex-vivo T cell assay IL-13 [2] [%]	% HDM allergic individuals with cytokine production in ex-vivo T cell assay IL-17 [2] [%]	% HDM allergic individuals with cytokine production in ex-vivo T cell assay IL-31 [2] [%]	% HDM allergic individuals with cytokine production in ex-vivo T cell assay INF-g [2] [%]	% non-allergic individuals with cytokine production in ex-vivo T cell assay IL-5 [2] [%]	% non-allergic individuals with cytokine production in ex-vivo T cell assay IL-9 [2] [%]	% non-allergic individuals with cytokine production in ex-vivo T cell assay IL-10 [2] [%]	% non-allergic individuals with cytokine production in ex-vivo T cell assay IL-13 [2] [%]	% non-allergic individuals with cytokine production in ex-vivo T cell assay IL-17 [2] [%]	% non-allergic individuals with cytokine production in ex-vivo T cell assay IL-31 [2] [%]	% non-allergic individuals with cytokine production in ex-vivo T cell assay INF-g [2] [%]	# of individuals of 14 with positive BAT test ([3]; 1 ng/ml)	# of individuals of 14 with positive BAT test ([3]; 10 ng/ml)	# of individuals of 14 with positive BAT test ([3]; 100 ng/ml)	# of individuals of 14 with positive BAT test ([3]; 1000 ng/ml)	further results
B1	17	0	6	0	75	6	25	0	6	0	0	100	0	50	0	0	0	0	1	2	
B2	3	0	6	0	19	13	13	0	0	0	0	17	0	17	0	0	0	0	0	1	
B3																					% T cell responding donors to protein [4]: 7 of 24
B4																					% T cell responding donors to protein [4]: 8 of 24
B5	21	38	6	6	44	19	38	0	31	0	0	83	0	67	0	33	0	0	0	0	
